Paper PMC8616923, “Initiation of cytosolic plant purine nucleotide catabolism involves a monospecific xanthosine monophosphate phosphatase” (Nature Communications, 2021)

Columns and labels:
[1] = molecular target: T1, XMPP (C-terminal His-tagged full-length XMPP) (Arabidopsis thaliana, UniProt F4ISS8); assay: EnzChek phosphate assay (MESG / purine nucleoside phosphorylase), initial rates; type: biochemical; settings: 30 °C, pH 7.5 (50 mM Tris), 1.25 mM MgCl2
T1 construct: gene At2g32150; full-length (13 residues beyond Ser250), C-terminal His tag, expressed in E. coli, HisTrap purified; monomer
T1 sequence (F4ISS8 1-263): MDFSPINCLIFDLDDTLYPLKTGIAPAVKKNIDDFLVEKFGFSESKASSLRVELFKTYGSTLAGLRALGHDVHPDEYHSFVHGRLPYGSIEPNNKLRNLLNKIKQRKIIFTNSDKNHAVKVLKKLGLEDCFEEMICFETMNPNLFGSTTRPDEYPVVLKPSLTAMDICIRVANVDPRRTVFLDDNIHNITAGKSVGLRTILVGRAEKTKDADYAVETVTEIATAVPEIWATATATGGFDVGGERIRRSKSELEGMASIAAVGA

[2] = molecular target: T1, XMPP (C-terminal His-tagged full-length XMPP); assay: as above; type: biochemical; settings: 30 °C, pH 7.5 (50 mM Tris), 1.25 mM MgCl2; remark: listed apart in the source
[3] = molecular target: T2, XMPP (XMPP-HAStrep; SDTL1) (Arabidopsis thaliana, UniProt F4ISS8); assay: inhibition of XMP hydrolysis (phosphate assay); type: biochemical; settings: 10 μM XMP as substrate; 22 °C
T2 construct: gene At2g32150; monomer
T2 sequence (F4ISS8 1-263): T1 sequence (F4ISS8 1-263)

purified protein = substrate: O=c1[nH]c(=O)c2ncn([C@@H]3O[C@H](COP(=O)(O)O)[C@@H](O)[C@H]3O)c2[nH]1; assay: purified protein; type: biochemical, Arabidopsis thaliana; settings: 22 °C
[4] = substrate: O=c1[nH]c(=O)c2ncn([C@@H]3O[C@H](COP(=O)(O)O)[C@@H](O)[C@H]3O)c2[nH]1; assay: EnzChek phosphate assay (MESG / purine nucleoside phosphorylase), initial rates; type: biochemical, Arabidopsis thaliana; settings: 30 °C, pH 7.5 (50 mM Tris), 1.25 mM MgCl2
Method: EnzChek phosphate assay (MESG / purine nucleoside phosphorylase), initial rates on XMPP (C-terminal His-tagged full-length XMPP) | enzymatic activities and kinetic constants of XMPP variants were determined

Molecule: O=c1[nH]c(=O)c2ncn([C@@H]3O[C@H](COP(=O)(O)O)[C@@H](O)[C@H]3O)c2[nH]1 [XMP]
- KM [1]: direct and indirect hydrogen bonds to Thr61, Lys29, and Arg51
- KM [2]: hydrophobic residues Val28, Ile31, and Phe55 that shape the xanthine-binding pocket

Molecule: O=c1[nH]c(=O)c2ncn([C@@H]3O[C@H](CO)[C@@H](O)[C@H]3O)c2[nH]1 [xanthosine]
- inhibition [3]: For XMPP, we confirmed an inhibition by xanthosine

B1: XMPP (XMPP-HAStrep; SDTL1) (Arabidopsis thaliana) (protein)
chain: T1 sequence (F4ISS8 1-263)
notes: monomer
- Km (purified protein): 3.9 ± 0.2 µM
- kcat (purified protein): 9.2 ± 0.1 s⁻¹

B2: XMPP (C-terminal His-tagged full-length XMPP) (Arabidopsis thaliana) (protein)
chain: T1 sequence (F4ISS8 1-263)
notes: full-length (13 residues beyond Ser250), C-terminal His tag, expressed in E. coli, HisTrap purified; monomer
- Km [4]: 8.1(0.8) μM
- kcat [4]: 16.5(0.33) s^-1
